The text below walks through data of patent US20220041711A1 (NGM BIOPHARMACEUTICALS, published 2022).

Experiment [1] deals with T1, mouse LAIR-1 (form in the assay not stated) (mouse, UniProt Q8BG84 22-144, limits assumed).
T1 sequence: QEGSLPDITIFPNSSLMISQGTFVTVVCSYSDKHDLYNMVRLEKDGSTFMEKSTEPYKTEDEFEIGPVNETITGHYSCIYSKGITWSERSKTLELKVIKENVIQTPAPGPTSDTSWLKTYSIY
Description: not described.

The target in experiment [2] is T2, human LAIR-2 (form in the assay not stated) (human, UniProt Q6ISS4 22-152).
T2 sequence: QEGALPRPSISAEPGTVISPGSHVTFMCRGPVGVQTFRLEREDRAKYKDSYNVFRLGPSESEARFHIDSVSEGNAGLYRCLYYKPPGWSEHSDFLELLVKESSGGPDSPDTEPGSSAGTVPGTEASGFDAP
Kind of experiment: ELISA and FACS screening.

In another experiment the target is T3, human LAIR-1-ECD (human, UniProt Q6GTX8 22-165).
T3 construct: Recombinant, expressed in mammalian cells; also called extracellular region of human LAIR-1
T3 chain: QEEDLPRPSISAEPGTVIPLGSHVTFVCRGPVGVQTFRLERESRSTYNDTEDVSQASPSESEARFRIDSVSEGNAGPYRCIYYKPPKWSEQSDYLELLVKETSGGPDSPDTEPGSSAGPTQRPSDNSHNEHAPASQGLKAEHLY
Description: SPR (Biacore); antibody captured by anti-Fc; LAIR-1-ECD injected.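 Also: Anti-Fc immobilized on a CM5 chip, LAIR-1-ECD (human or cynomolgus) injected at 3.3-10 nM and 25 °C, kinetics fitted by simultaneous global fit.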 On the technique in general: In SPR one partner is held on a chip, and binding of the other changes the refractive index at the surface.

A further experiment concerns the target T4, cyno LAIR-1-ECD (cynomolgus monkey).
T4 construct: Recombinant, expressed in mammalian cells; also called extracellular region of cyno LAIR-1
T4 chain: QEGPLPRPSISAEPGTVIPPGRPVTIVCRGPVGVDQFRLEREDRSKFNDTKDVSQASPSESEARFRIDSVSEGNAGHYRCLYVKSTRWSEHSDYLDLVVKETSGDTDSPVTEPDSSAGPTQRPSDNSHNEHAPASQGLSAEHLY
Described as above.

For experiment [3], the target named is T5, human LAIR-1-CD3ζ chimeric receptor on NFAT-GFP reporter cells (human, UniProt P20963 31-164, limits assumed). Kind of experiment: cell-based or functional assay.
The target of experiment [4] is T5, human LAIR-1-CD3ζ chimeric receptor on …. Kind of experiment: cell-based or functional assay. The source holds these as a separate data set.

Positions count from the first letter of the chain named. Like-named read-outs stand apart in the source and are kept apart here.

B1: anti-LAIR-1 antibody 57D12 (antibody, V domains shown)
VH: QVQLQQSGAELARPGASVNLSCRASGYSFTSFGISWVKQRTGQGLEWIGEIYPRSDNTFYNEKFKGKATLTADKSSSTAYMELRSLTSEDSAVYFCARHFGSSSFDYWGQGTTLTVSS
VL: ENVLTQSPPIMAASLGQKVTMTCSASSSVSSIYFHWYQQKSGTSPKPLIHRASNLASGVPARFSGSGSGTSYSLTISSVEAEDDATYYCQQWSGYPLTFGGGTKLEIK
notes: Monoclonal antibody from immunized mice (hybridoma)
Regarding B1, the binding result in experiment [1] and in experiment [2] was “no binding” in each case. Also, the results for the Kd with human LAIR-1-ECD and with cyno LAIR-1-ECD were 0.27 nM and 7.3 nM, respectively. Also, the koff in the experiment with human LAIR-1-ECD came to 4.5e-05 s⁻¹; with cyno LAIR-1-ECD, 0.00078 s⁻¹. For the same molecule, the kon was 170000 M⁻¹ s⁻¹ in the experiment with human LAIR-1-ECD and 110000 M⁻¹ s⁻¹ in the experiment with cyno LAIR-1-ECD.

B2: anti-LAIR-1 antibody ch61H4 (antibody, V domains shown)
VH: EVQLQQSGPEVLKPGASVKISCKASGYTFTDYYYMNWVKQSHGKSLEWIGYIYPNNGATSYNQKFKGKATLTVDKSSSTAYMELRSLTSEDSAVYYCARDGYSSNYYTMDYWGQGTSVTVSS
VL: DVQMIQSPSSLSASLGDIVTMTCQASQGTSINLNWFQQKPGKAPKLLIYGASNLEDGVPSRFSGSRYGTDFTLTISSLEDEDMATYFCLQHTYLPYTFGGGTKLEIK
As for B2, in experiment [3], the “IC50 (read off the curve): % GFP+ human LAIR-1 reporter cells on coated MARCO-his” value is about 0.8 nM, the “IC50 (read off the curve): % GFP+ human LAIR-1 reporter cells on coated collagen 1” value is about 2 nM and the “IC50 (read off the curve): % GFP+ human LAIR-1 reporter cells on coated collagen 4” value is about 1 nM.

B3: anti-LAIR-1 antibody 61H4 (antibody, V domains shown)
VH: B2 VH
VL: B2 VL
notes: as for B1
Regarding B3, the binding result in experiment [1] is “no binding”. Moreover, the binding result in experiment [2] is given as “no binding”. Also, in the experiment with human LAIR-1-ECD, the dissociation constant Kd was 0.46 nM, the koff was found to be 4.9e-05 s⁻¹ and the kon came to 110000 M⁻¹ s⁻¹. In the experiment with cyno LAIR-1-ECD, this molecule displayed a Kd of 9.6 nM, a koff of 0.00077 s⁻¹ and a kon of 80000 M⁻¹ s⁻¹.

B4: anti-LAIR-1 antibody ch108D10 (antibody, V domains shown)
VH: EVQLVETGGGLVQPKGSLKLSCAASGFTFNINAMNWVRQAPGKGLEWVARIRTKNNNYATYYADSVKDRFTISRDDSESMLYLQMNNLKTEDTAMYYCVRDRYGGAMAYWGQGTSVTVSS
VL: DIQMTQSSSSFSVSLGDRVTITCKASEDIYNRLAWYQQKPGNVPRLLISSATSLETGVPSRFSGSGSGKDYTLSLTSLQSEDVATYYCQQYWTIPYTFGGGTKLEIK
On to B4, for which, in experiment [3], the “IC50 (read off the curve): % GFP+ human LAIR-1 reporter cells on coated MARCO-his” value is about 0.01 nM, the “IC50 (read off the curve): % GFP+ human LAIR-1 reporter cells on coated collagen 1” value was about 0.05 nM and the “IC50 (read off the curve): % GFP+ human LAIR-1 reporter cells on coated collagen 4” value was about 0.04 nM. In addition, in experiment [4], the “IC50 (read off the curve): % GFP+ human LAIR-1 reporter cells on coated C1 complex” value is about 0.01 nM, the “IC50 (read off the curve): % GFP+ human LAIR-1 reporter cells on coated COLEC12” value was about 0.03 nM, the “IC50 (read off the curve): % GFP+ human LAIR-1 reporter cells on coated MARCO-his” value was about 0.03 nM and the “IC50 (read off the curve): % GFP+ human LAIR-1 reporter cells on coated MBL” value was about 0.04 nM. For the same molecule, in experiment [4], the “IC50 (read off the curve): % GFP+ human LAIR-1 reporter cells on coated SP-D” value is about 0.02 nM, the “IC50 (read off the curve): % GFP+ human LAIR-1 reporter cells on coated collagen 1” value was about 0.03 nM and the “IC50 (read off the curve): % GFP+ human LAIR-1 reporter cells on coated collagen 4” value is about 0.02 nM.

B5: anti-LAIR-1 antibody 108D10 (antibody, V domains shown)
VH: B4 VH
VL: B4 VL
notes: as for B1
Take B5: the binding result in experiment [1] and in experiment [2] was “no binding” throughout. Besides, the results for the Kd in the experiment with human LAIR-1-ECD and in the experiment with cyno LAIR-1-ECD were 0.4 nM and 21 nM, respectively. Besides, the dissociation rate constant (koff) stood at 0.00043 s⁻¹ with human LAIR-1-ECD and 0.0039 s⁻¹ in the experiment with cyno LAIR-1-ECD. The association rate constant (kon) with human LAIR-1-ECD was 1.1e+06 M⁻¹ s⁻¹; with cyno LAIR-1-ECD, 190000 M⁻¹ s⁻¹.

B6: anti-LAIR-1 antibody 62G10 (antibody, V domains shown)
VH: EVQLVETGGGLVQPKGSLKLSCATSGFTFNINAMNWVRQAPGKGLEWVARIRTKNNNFATYYADSVKDRFTISRDDSQSMLYLQMNNLKTEDTAMYYCVRGPYFDYWGQGTTLTVSS
VL: DIQMTQSPASQSASLGESVTITCLASQTIGTWLAWYQQKPGKSPQLLIYAATSLADGVPSRFSGSGSGTKFSFKISNLQAEDFVTYYCQQLYSTPYTFGGGTKLEIK
notes: as for B1
On to B6, for which the binding result in experiment [1] is “no binding”. The binding result in experiment [2] is given as “no binding”. In the experiment with human LAIR-1-ECD, the affinity, expressed as Kd, was 0.32 nM; the koff was 0.00018 s⁻¹; the association rate constant (kon) was 550000 M⁻¹ s⁻¹. In the experiment with cyno LAIR-1-ECD, this molecule yielded a Kd of 5.1 nM, a koff of 0.001 s⁻¹ and a kon of 200000 M⁻¹ s⁻¹.

B7: anti-LAIR-1 antibody 47H1 (antibody, V domains shown)
VH: EVQLVETGGGLVQPKGSLKLSCAASGFTFNINAMNWVRQAPGKGLEWVARIRTKNNNYATFYADSVKDRFTISRDDSQSMLYLQMNNLKTDDTAMYYCVRDRAGFFAYWGQGTPVTVSA
VL: B6 VL with A34G, Q37R, N77S, T85I, Y96L, G100S
notes: as for B1
On to B7, for which, in experiment [1], the binding result is listed as “no binding”. Further, the binding result in experiment [2] is “no binding”. In the experiment with human LAIR-1-ECD, this molecule displayed a Kd of 0.087 nM, a koff of 0.0001 s⁻¹ and a kon of 1.2e+06 M⁻¹ s⁻¹. In addition, in the experiment with cyno LAIR-1-ECD, binding was put at a Kd of 2.5 nM, the koff came to 0.00044 s⁻¹ and the kon came out at 180000 M⁻¹ s⁻¹.

B8: anti-LAIR-1 antibody ch47A1 (antibody, V domains shown)
VH: EVQLVESGGGLVQPKGSLKLSCAASGFTFNTYAIHWVRQAPGKGLEWVARIRSKSTNYATYYADSVKDRFTISRDDSQSMVFLQMNNLKTEDTAMYYCVRENWYYYALDYWGQGTSVTVSS
VL: DIQMTQSPASLSASVGETVTITCRASGNIHNYLTWYQQKQGKSPQVLVYNAKTLEDGVPSRFSGSESGTQYSLKINSLQPEDFGSYYCQHFWSTPFTFGSGTKLEIK
For B8, in experiment [3], the “IC50 (read off the curve): % GFP+ human LAIR-1 reporter cells on coated MARCO-his” value is about 0.04 nM, the “IC50 (read off the curve): % GFP+ human LAIR-1 reporter cells on coated collagen 1” value is about 0.1 nM and the “IC50 (read off the curve): % GFP+ human LAIR-1 reporter cells on coated collagen 4” value is about 0.08 nM. In experiment [4], the “IC50 (read off the curve): % GFP+ human LAIR-1 reporter cells on coated C1 complex” value is about 0.02 nM, the “IC50 (read off the curve): % GFP+ human LAIR-1 reporter cells on coated COLEC12” value was about 0.1 nM, the “IC50 (read off the curve): % GFP+ human LAIR-1 reporter cells on coated MARCO-his” value is about 0.06 nM and the “IC50 (read off the curve): % GFP+ human LAIR-1 reporter cells on coated MBL” value is about 0.2 nM. For the same molecule, in experiment [4], the “IC50 (read off the curve): % GFP+ human LAIR-1 reporter cells on coated SP-D” value was about 0.05 nM, the “IC50 (read off the curve): % GFP+ human LAIR-1 reporter cells on coated collagen 1” value was about 0.05 nM and the “IC50 (read off the curve): % GFP+ human LAIR-1 reporter cells on coated collagen 4” value was about 0.04 nM.

B9: anti-LAIR-1 antibody 47A1 (antibody, V domains shown)
VH: B8 VH
VL: B8 VL
notes: as for B1
As for B9, in experiment [1], the binding result is listed as “no binding”. In addition, the binding result in experiment [2] is “no binding”. In the experiment with human LAIR-1-ECD, this molecule yielded a Kd of 0.92 nM, a koff of 0.00055 s⁻¹ and a kon of 590000 M⁻¹ s⁻¹. In the experiment with cyno LAIR-1-ECD, this molecule had a Kd of 18 nM, a koff of 0.0057 s⁻¹ and a kon of 320000 M⁻¹ s⁻¹.

For orientation: Kd means the free concentration of one partner at which half of the binding sites on the other are occupied at equilibrium, for simple one-to-one binding. The koff is the first-order rate constant of dissociation. Low readings indicate a long-lived complex, high ones a short-lived complex. One may read the kon as the second-order rate constant of association.
